# Experimental data: IntAct's records for PubMed 26749241
# B1: Succinate dehydrogenase assembly factor 1, mitochondrial (Homo sapiens), A6NFY7 (parent)
# chain: MSRHSRLQRQVLSLYRDLLRAGRGKPGAEARVRAEFRQHAGLPRSDVLRIEYLYRRGRRQLQLLRSGHATAMGAFVRPRAPTGEPGGVGCQPDDGDSPRNPHDSTGAPETRPDGR
# partner: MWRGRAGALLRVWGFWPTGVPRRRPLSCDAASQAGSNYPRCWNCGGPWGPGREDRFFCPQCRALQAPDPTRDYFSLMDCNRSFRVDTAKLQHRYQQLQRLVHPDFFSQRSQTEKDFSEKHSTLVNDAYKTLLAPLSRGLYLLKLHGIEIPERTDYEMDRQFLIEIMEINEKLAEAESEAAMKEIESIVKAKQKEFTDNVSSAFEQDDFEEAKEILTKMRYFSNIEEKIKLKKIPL
# B2: Succinate dehydrogenase assembly factor 1, mitochondrial (Homo sapiens), A6NFY7 (parent)
# chain: B1 chain
# partner: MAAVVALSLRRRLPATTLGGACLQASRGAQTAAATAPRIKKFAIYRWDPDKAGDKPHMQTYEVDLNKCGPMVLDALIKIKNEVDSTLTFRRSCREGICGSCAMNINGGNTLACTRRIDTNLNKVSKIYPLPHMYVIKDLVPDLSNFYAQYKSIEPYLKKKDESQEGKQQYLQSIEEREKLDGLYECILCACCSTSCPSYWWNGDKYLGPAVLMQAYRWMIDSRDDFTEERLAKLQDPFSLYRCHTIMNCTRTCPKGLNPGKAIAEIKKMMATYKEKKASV
# B3: Succinate dehydrogenase [ubiquinone] iron-sulfur subunit, mitochondrial (Homo sapiens), P21912 (parent)
# chain: B2 partner
# partner: B1 chain
# Variants of: B1
# Conditions: with hsc20_human HSCB
row,effect of a mutation on the interaction,Variant
1,disrupting interaction strength,MSRHSRLQRQVLYLYRRLLRAGRGKPGAEARVRAEFRQHAGLPRSDVLRIEYLYRRGRRQLQLLRSGHATAMGAFVRPRAPTGEPGGVGCQPDDGDSPRNPHDSTGAPETRPDGR
2,disrupting interaction strength,MSRHSRLQRQVLSAAADLLRAGRGKPGAEARVRAEFRQHAGLPRSDVLRIEYLYRRGRRQLQLLRSGHATAMGAFVRPRAPTGEPGGVGCQPDDGDSPRNPHDSTGAPETRPDGR
3,with no effect,MSRHSRLQRQVLSVFKDLLRAGRGKPGAEARVRAEFRQHAGLPRSDVLRIEYLYRRGRRQLQLLRSGHATAMGAFVRPRAPTGEPGGVGCQPDDGDSPRNPHDSTGAPETRPDGR
4,decreasing interaction strength,MSRHSRLQRQVLSLYRDLLRAGRGKPGAEARVRAEFRQHAGLPRSDVLRIESLYRDGRRQLQLLRSGHATAMGAFVRPRAPTGEPGGVGCQPDDGDSPRNPHDSTGAPETRPDGR
5,with no effect,MSRHSRLQRQVLSLYRDLLRAGRGKPGAEARVRAEFRQHAGLPRSDVLRIEYAAARGRRQLQLLRSGHATAMGAFVRPRAPTGEPGGVGCQPDDGDSPRNPHDSTGAPETRPDGR
6,with no effect,MSRHSRLQRQVLSLYRDLLRAGRGKPGAEARVRAEFRQHAGLPRSDVLRIEYLYPRGRRQLQLLRSGHATAMGAFVRPRAPTGEPGGVGCQPDDGDSPRNPHDSTGAPETRPDGR
7,with no effect,MSRHSRLQRQVLSLYRDLLRAGRGKPGAEARVRAEFRQHAGLPRSDVLRIEYLYRRRRRQLQLLRSGHATAMGAFVRPRAPTGEPGGVGCQPDDGDSPRNPHDSTGAPETRPDGR

# Variants of: B2
# Conditions: with sdhb_human SDHB
row,effect of a mutation on the interaction,Variant
1,with no effect,MSRHSRLQRQVLSAAADLLRAGRGKPGAEARVRAEFRQHAGLPRSDVLRIEYLYRRGRRQLQLLRSGHATAMGAFVRPRAPTGEPGGVGCQPDDGDSPRNPHDSTGAPETRPDGR
2,decreasing interaction strength,MSRHSRLQRQVLSLYRDLLRAGRGKPGAEARVRAEFRQHAGLPRSDVLRIEYAAARGRRQLQLLRSGHATAMGAFVRPRAPTGEPGGVGCQPDDGDSPRNPHDSTGAPETRPDGR
3,decreasing interaction strength,MSRHSRLQRQVLSLYRDLLRAGRGKPGAEARVRAEFRQHAGLPRSDVLRIEYLYPRGRRQLQLLRSGHATAMGAFVRPRAPTGEPGGVGCQPDDGDSPRNPHDSTGAPETRPDGR
4,disrupting interaction strength,MSRHSRLQRQVLSLYRDLLRAGRGKPGAEARVRAEFRQHAGLPRSDVLRIEYLYRRRRRQLQLLRSGHATAMGAFVRPRAPTGEPGGVGCQPDDGDSPRNPHDSTGAPETRPDGR

# Variants of: B2
# Conditions: with sdhb_human SDHB
# Remark: another data set of the same source
row,effect of a mutation on the interaction,Variant
1,disrupting interaction strength,MSRHSRLQRQVLSLYRDLLRAGRGKPGAEARVRAEFRQHAGLPRSDVLRIEYAAARGRRQAQLAASGHATAMGAFVRPRAPTGEPGGVGCQPDDGDSPRNPHDSTGAPETRPDGR
2,disrupting interaction strength,MSRHSRLQRQVLSLYRDLLRAGRGKPGAEARVRAEFRQHAGLPRSDVLRIEYAAAAAAAQLQLLRSGHATAMGAFVRPRAPTGEPGGVGCQPDDGDSPRNPHDSTGAPETRPDGR
3,decreasing interaction strength,MSRHSRLQRQVLSLYRDLLRAGRGKPGAEARVRAEFRQHAGLPRSDVLRIEYLYRAAAAQLQLLRSGHATAMGAFVRPRAPTGEPGGVGCQPDDGDSPRNPHDSTGAPETRPDGR
4,decreasing interaction strength,MSRHSRLQRQVLSLYRDLLRAGRGKPGAEARVRAEFRQHAGLPRSDVLRIEYLYRRGRRQAQLAASGHATAMGAFVRPRAPTGEPGGVGCQPDDGDSPRNPHDSTGAPETRPDGR

# Variants of: B3
# Conditions: with sdhf1_human SDHAF1, A6NFY7
row,effect of a mutation on the interaction,Variant
1,increasing interaction strength,MAAVVALSLRRRLPATTLGGACLQASRGAQTAAATAPRIKKFAIYRWDPDKAGDKPHMQTYEVDLNKCGPMVLDALIKIKNEVDSTLTFRRSCREGICGSCAMNINGGNTLACTRRIDTNLNKVSKIYPLPHMYVIKDLVPDLSNFYAQYKSIEPYLKKKDESQEGKQQYAAAIEEREKLDGLYECILCACCSTSCPSYWWNGDKYLGPAVLMQAYRWMIDSRDDFTEERLAKLQDPFSLYRCHTIMNCTRTCPKGLNPGKAIAEIKKMMATYKEKKASV [L171A;Q172A;S173A]
2,increasing interaction strength,MAAVVALSLRRRLPATTLGGACLQASRGAQTAAATAPRIKKFAIYRWDPDKAGDKPHMQTYEVDLNKCGPMVLDALIKIKNEVDSTLTFRRSCREGICGSCAMNINGGNTLACTRRIDTNLNKVSKIYPLPHMYVIKDLVPDLSNFYAQYKSIEPYLKKKDESQEGKQQYLQSIEEAEAAAGLYECILCACCSTSCPSYWWNGDKYLGPAVLMQAYRWMIDSRDDFTEERLAKLQDPFSLYRCHTIMNCTRTCPKGLNPGKAIAEIKKMMATYKEKKASV [R177A;K179A;L180A;D181A]
3,disrupting interaction strength,MAAVVALSLRRRLPATTLGGACLQASRGAQTAAATAPRIKKFAIYRWDPDKAGDKPHMQTYEVDLNKCGPMVLDALIKIKNEVDSTLTFRRSCREGICGSCAMNINGGNTLACTRRIDTNLNKVSKIYPLPHMYVIKDLVPDLSNFYAQYKSIEPYLKKKDESQEGKQQYLQSIEEREKLDGAAACILCACCSTSCPSYWWNGDKYLGPAVLMQAYRWMIDSRDDFTEERLAKLQDPFSLYRCHTIMNCTRTCPKGLNPGKAIAEIKKMMATYKEKKASV [L183A;Y184A;E185A]
